Values of other authors as cited in PMC8820802.

System: streptavidin
Details: 50 mM Tris-HCl pH 7.6, 10 mM MgCl2, 100 mM KCl, 10% glycerol, 0.05% NP-40, protease inhibitor; HEK293T lysate on streptavidin-Sepharose, 16 h, 4 C

Substance | Kd
S1 aptamer | 79 nM
S1m aptamer | 29 nM
